Results from article doi:10.1101/481457 (bioRxiv, 2019).

Target: T1, CBP Full-HAT domain (central core catalytic region), 6His-tagged (mouse, UniProt P45481 1096-1700)
T1 sequence (looked up): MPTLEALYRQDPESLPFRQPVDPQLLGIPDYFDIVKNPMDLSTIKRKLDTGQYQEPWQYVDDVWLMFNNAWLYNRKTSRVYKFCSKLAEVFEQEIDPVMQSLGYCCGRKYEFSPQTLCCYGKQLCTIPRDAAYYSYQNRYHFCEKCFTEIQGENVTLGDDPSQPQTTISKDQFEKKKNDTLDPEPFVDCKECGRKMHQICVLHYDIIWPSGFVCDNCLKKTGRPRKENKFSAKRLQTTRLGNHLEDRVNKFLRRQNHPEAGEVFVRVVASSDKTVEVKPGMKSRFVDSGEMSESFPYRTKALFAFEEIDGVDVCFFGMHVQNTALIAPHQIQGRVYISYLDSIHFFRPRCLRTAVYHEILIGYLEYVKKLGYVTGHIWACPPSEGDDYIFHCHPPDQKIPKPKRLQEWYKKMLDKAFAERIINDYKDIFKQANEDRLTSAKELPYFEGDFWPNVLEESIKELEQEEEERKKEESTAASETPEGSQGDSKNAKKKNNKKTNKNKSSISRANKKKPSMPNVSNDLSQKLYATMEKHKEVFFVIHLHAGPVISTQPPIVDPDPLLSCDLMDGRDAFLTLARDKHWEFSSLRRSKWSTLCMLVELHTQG
Assay: BLI

B1: biotinylated recombinant full-length HSF2 (natural protein, UniProt Q03933 1-536, looked up)
chain: MKQSSNVPAFLSKLWTLVEETHTNEFITWSQNGQSFLVLDEQRFAKEILPKYFKHNNMASFVRQLNMYGFRKVVHIDSGIVKQERDGPVEFQHPYFKQGQDDLLENIKRKVSSSKPEENKIRQEDLTKIISSAQKVQIKQETIESRLSELKSENESLWKEVSELRAKHAQQQQVIRKIVQFIVTLVQNNQLVSLKRKRPLLLNTNGAQKKNLFQHIVKEPTDNHHHKVPHSRTEGLKPRERISDDIIIYDVTDDNADEENIPVIPETNEDVISDPSNCSQYPDIVIVEDDNEDEYAPVIQSGEQNEPARESLSSGSDGSSPLMSSAVQLNGSSSLTSEDPVTMMDSILNDNINLLGKVELLDYLDSIDCSLEDFQAMLSGRQFSIDPDLLVDLFTSSVQMNPTDYINNTKSENKGLETTKNNVVQPVSEEGRKSKSKPDKQLIQYTAFPLLAFLDGNPASSVEQASTTASSEVLSSVDKPIEVDELLDSSLDPEPTQSKLVRLEPLTEAEASEATLFYLCELAPAPLDSDMPLLDS
modifications: biotinylated with EZ-Link NHS-PEG4-Biotin at a molar ratio biotin/protein 3:1
Kd: 1 nM
